In patent US20240261333A1, “NOVEL TARGETS FOR ENHANCING ANTI-TUMOR IMMUNITY” (THE BROAD INSTITUTE, INC., priority 2021, published 2024):

Experiments:
ARPC4 (human) = ARPC4 (human) (UniProt P59998); assay: co-IP, IgG control, lysate of cells with C-FLAG B3GNT2; mass spectrometry
CAT (human) = CAT (human) (UniProt P04040); assay: as above
CSE1L (human) = CSE1L (human) (UniProt P55060); assay: as above
DDX5 (human) = DDX5 (human) (UniProt P17844); assay: as above
DNAJC3 (human) = DNAJC3 (human) (UniProt Q13217); assay: as above
FUBP3 (human) = FUBP3 (human) (UniProt Q96I24); assay: as above
G3BP1 (human) = G3BP1 (human) (UniProt Q13283); assay: as above
HNRNPA2B1 (human) [1] = molecular target: HNRNPA2B1 (human) (UniProt P22626); assay: as above
HNRNPK (human) = HNRNPK (human) (UniProt P61978); assay: as above
HSPA8 (human) = HSPA8 (human) (UniProt P11142); assay: as above
HUWE1 (human) = HUWE1 (human) (UniProt Q7Z6Z7); assay: as above
KRT4 (human) = KRT4 (human) (UniProt P19013); assay: as above
NUFIP2 (human) = NUFIP2 (human) (UniProt Q7Z417); assay: as above
PRRC2A (human) = PRRC2A (human) (UniProt P48634); assay: as above
PUM1 (human) = PUM1 (human) (UniProt Q14671); assay: as above
RBM39 (human) = RBM39 (human) (UniProt Q14498); assay: as above
RPL10 (human) = RPL10 (human) (UniProt P27635); assay: as above
RPL18 (human) = RPL18 (human) (UniProt Q07020); assay: as above
RPL4 (human) [2] = molecular target: RPL4 (human) (UniProt P36578); assay: as above
RPS28 (human) = RPS28 (human) (UniProt P62857); assay: as above
RPS3 (human) = RPS3 (human) (UniProt P23396); assay: as above
SAMM50 (human) = SAMM50 (human) (UniProt Q9Y512); assay: as above
SERBP1 (human) = molecular target: T1, SERBP1 (human) (UniProt Q8NC51); assay: as above
T1 sequence (looked up): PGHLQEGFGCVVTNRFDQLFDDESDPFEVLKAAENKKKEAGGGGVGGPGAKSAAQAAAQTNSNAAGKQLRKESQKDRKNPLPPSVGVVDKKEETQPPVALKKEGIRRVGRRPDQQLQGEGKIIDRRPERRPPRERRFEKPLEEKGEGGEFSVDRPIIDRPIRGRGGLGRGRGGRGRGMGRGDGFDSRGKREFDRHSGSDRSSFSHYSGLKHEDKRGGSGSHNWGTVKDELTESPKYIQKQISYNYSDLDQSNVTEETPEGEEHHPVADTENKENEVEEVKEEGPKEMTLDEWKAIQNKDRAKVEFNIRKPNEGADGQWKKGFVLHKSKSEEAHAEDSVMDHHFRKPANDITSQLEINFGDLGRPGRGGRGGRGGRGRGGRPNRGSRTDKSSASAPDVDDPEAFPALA

SPTAN1 (human) = SPTAN1 (human) (UniProt Q13813); assay: as above
UBAP2L (human) = UBAP2L (human) (UniProt Q14157); assay: as above
HNRNPA2B1 (human) [3] = molecular target: HNRNPA2B1 (human) (UniProt P22626); assay: co-IP, IgG control, lysate of cells with N-FLAG B3GNT2; mass spectrometry
LSM12 (human) = LSM12 (human) (UniProt Q3MHD2); assay: as above
PARP1 (human) = PARP1 (human) (UniProt P09874); assay: as above
RPL4 (human) [4] = molecular target: RPL4 (human) (UniProt P36578); assay: as above

HNRNPA2B1 (human), sequence (P22626 other isoform, or with tags, fused parts or gaps limits assumed): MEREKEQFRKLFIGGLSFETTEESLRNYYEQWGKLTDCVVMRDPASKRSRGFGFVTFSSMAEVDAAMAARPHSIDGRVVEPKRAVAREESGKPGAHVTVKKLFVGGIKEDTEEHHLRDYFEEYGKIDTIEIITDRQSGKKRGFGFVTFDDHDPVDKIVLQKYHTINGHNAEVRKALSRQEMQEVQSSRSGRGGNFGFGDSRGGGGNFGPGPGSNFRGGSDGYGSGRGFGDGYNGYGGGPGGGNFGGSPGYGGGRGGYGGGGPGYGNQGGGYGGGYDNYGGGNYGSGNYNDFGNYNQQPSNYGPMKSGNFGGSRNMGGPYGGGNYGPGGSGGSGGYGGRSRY
KRT4 (human), sequence (P19013 whole entry): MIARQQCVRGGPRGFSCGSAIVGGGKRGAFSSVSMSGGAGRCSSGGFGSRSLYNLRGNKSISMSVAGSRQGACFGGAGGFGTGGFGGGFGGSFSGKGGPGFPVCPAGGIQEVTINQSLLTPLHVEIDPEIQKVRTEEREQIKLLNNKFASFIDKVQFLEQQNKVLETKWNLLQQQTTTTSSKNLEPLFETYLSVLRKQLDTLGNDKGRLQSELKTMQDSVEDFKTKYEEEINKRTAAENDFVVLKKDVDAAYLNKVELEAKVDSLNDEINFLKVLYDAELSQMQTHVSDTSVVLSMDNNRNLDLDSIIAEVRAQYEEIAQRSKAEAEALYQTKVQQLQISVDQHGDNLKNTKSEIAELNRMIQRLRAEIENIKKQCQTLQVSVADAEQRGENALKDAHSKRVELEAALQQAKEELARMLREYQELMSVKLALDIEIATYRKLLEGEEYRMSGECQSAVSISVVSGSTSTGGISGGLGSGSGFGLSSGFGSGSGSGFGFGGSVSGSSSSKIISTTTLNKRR
SAMM50 (human), sequence (Q9Y512 whole entry): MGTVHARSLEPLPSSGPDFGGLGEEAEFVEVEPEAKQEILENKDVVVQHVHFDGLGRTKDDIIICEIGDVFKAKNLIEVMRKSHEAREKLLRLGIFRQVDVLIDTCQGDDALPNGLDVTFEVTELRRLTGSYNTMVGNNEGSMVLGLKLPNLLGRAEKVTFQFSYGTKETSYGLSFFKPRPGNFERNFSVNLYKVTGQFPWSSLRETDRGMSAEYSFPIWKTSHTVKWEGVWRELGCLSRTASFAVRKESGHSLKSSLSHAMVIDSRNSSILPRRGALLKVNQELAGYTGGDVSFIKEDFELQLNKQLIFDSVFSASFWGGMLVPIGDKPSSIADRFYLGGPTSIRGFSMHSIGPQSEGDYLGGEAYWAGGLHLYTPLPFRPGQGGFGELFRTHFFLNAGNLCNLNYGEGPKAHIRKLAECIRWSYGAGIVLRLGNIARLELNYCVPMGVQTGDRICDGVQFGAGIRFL
DNAJC3 (human), sequence (Q13217 32-504 limits assumed): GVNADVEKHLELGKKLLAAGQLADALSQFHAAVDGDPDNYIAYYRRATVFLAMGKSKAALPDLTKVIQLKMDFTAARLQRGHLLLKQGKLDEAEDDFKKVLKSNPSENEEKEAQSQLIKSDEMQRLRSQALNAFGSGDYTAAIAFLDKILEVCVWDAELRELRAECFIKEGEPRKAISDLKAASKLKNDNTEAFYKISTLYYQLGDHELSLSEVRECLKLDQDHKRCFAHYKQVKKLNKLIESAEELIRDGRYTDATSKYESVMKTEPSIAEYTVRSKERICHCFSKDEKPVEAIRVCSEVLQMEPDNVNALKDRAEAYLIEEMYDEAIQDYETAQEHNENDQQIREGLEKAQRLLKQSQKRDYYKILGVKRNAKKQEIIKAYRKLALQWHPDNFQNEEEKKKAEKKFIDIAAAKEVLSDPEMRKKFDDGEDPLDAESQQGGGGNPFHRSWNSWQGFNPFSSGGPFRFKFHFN
UBAP2L (human), sequence (Q14157 whole entry): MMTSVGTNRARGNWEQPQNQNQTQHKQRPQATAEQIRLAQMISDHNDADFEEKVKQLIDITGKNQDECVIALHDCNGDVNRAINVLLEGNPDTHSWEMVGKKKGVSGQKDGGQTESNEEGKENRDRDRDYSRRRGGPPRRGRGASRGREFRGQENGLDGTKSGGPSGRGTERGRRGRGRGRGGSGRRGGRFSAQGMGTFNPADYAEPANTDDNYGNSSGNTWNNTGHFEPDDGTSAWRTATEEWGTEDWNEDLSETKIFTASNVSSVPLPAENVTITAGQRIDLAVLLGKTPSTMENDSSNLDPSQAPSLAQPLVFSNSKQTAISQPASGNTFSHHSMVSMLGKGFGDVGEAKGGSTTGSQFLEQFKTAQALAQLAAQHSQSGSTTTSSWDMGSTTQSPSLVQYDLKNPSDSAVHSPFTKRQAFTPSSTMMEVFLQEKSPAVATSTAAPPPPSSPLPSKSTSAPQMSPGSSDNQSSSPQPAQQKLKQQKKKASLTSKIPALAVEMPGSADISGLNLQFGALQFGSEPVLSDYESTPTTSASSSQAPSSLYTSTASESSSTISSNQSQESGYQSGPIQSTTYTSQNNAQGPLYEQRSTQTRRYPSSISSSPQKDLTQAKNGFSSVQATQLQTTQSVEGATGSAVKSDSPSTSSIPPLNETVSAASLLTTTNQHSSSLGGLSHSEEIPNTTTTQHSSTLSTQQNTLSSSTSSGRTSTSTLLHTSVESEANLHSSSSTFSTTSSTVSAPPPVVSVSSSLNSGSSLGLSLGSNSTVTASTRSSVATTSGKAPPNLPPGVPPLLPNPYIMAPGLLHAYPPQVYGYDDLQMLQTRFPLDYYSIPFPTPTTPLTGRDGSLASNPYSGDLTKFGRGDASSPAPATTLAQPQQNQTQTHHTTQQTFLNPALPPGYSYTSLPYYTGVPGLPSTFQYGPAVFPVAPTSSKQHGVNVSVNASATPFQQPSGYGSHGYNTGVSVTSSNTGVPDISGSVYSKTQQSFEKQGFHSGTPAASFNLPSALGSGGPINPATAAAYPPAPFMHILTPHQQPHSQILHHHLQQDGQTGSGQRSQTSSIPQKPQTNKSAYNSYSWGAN
PUM1 (human), sequence (Q14671 other isoform, or with tags, fused parts or gaps limits assumed): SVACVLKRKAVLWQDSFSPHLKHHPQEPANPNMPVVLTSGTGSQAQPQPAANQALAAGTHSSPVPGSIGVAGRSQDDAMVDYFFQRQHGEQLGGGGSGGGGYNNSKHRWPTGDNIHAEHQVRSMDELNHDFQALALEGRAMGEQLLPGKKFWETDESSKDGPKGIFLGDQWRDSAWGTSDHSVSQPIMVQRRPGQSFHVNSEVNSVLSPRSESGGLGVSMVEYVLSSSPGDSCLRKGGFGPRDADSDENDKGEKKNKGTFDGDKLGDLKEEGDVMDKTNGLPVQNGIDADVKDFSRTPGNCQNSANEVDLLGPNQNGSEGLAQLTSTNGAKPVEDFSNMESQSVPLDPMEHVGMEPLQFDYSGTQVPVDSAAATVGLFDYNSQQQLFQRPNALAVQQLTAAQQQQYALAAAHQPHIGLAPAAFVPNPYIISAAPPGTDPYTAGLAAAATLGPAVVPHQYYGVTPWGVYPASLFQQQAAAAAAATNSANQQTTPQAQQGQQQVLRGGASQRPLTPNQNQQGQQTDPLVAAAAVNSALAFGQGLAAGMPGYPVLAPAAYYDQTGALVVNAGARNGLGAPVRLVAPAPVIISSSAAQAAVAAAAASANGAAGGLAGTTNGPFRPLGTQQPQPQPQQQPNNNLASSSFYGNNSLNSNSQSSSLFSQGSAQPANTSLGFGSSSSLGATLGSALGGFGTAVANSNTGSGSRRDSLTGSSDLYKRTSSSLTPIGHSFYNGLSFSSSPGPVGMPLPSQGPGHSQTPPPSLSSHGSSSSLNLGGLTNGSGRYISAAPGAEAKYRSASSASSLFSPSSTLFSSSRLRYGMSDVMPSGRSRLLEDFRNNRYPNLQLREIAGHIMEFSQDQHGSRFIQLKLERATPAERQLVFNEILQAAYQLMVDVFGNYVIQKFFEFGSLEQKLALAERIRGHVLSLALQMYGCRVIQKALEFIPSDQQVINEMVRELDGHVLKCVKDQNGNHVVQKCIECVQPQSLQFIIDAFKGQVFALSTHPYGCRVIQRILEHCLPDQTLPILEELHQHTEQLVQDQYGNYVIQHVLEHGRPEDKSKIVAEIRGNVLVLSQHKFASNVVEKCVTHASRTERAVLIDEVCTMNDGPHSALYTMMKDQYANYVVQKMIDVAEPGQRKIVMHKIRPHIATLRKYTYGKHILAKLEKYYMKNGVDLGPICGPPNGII
CSE1L (human), sequence (P55060 other isoform, or with tags, fused parts or gaps limits assumed): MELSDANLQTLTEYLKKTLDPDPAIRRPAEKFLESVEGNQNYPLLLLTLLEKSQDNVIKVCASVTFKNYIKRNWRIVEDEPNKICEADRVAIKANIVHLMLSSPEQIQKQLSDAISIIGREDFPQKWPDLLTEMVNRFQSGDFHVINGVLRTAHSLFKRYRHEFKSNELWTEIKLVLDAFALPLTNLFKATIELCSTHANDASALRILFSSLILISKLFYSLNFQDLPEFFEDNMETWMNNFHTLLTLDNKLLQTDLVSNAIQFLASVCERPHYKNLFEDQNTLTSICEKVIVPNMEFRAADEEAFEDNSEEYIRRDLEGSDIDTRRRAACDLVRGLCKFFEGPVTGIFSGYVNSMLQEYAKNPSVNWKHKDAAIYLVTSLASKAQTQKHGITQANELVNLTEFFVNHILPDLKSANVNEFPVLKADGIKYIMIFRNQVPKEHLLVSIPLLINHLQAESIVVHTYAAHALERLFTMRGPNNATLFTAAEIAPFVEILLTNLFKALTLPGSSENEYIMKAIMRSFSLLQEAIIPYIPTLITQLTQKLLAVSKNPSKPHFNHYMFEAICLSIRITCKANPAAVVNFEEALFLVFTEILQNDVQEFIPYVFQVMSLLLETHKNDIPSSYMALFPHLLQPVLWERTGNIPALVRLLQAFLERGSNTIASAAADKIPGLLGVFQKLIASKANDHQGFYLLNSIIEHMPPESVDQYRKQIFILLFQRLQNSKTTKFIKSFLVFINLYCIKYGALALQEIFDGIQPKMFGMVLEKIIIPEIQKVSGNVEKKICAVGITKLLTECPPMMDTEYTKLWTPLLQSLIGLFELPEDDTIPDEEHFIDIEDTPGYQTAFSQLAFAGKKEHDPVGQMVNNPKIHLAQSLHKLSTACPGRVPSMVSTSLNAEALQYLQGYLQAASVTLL

IgG control (Millipore Sigma 12-371) (antibody)
co-IP mass spectrometry count (ARPC4 (human)): 0 | co-IP mass spectrometry count (CAT (human)): 3 | co-IP mass spectrometry count (CSE1L (human)): 0 | co-IP mass spectrometry count (DDX5 (human)): 16 | co-IP mass spectrometry count (DNAJC3 (human)): 0 | co-IP mass spectrometry count (FUBP3 (human)): 7 | co-IP mass spectrometry count (G3BP1 (human)): 25 | co-IP mass spectrometry count (HNRNPA2B1 (human) [1]): 9 | co-IP mass spectrometry count (HNRNPK (human)): 10 | co-IP mass spectrometry count (HSPA8 (human)): 15 | co-IP mass spectrometry count (HUWE1 (human)): 0 | co-IP mass spectrometry count (KRT4 (human)): 0 | co-IP mass spectrometry count (NUFIP2 (human)): 4 | co-IP mass spectrometry count (PRRC2A (human)): 3 | co-IP mass spectrometry count (PUM1 (human)): 0 | co-IP mass spectrometry count (RBM39 (human)): 3 | co-IP mass spectrometry count (RPL10 (human)): 3 | co-IP mass spectrometry count (RPL18 (human)): 7 | co-IP mass spectrometry count (RPL4 (human) [2]): 6 | co-IP mass spectrometry count (RPS28 (human)): 0 | co-IP mass spectrometry count (RPS3 (human)): 17 | co-IP mass spectrometry count (SAMM50 (human)): 0 | co-IP mass spectrometry count (SERBP1 (human)): 5 | co-IP mass spectrometry count (SPTAN1 (human)): 0 | co-IP mass spectrometry count (UBAP2L (human)): 15 | co-IP mass spectrometry count (HNRNPA2B1 (human) [3]): 4 | co-IP mass spectrometry count (LSM12 (human)): 2 | co-IP mass spectrometry count (PARP1 (human)): 0 | co-IP mass spectrometry count (RPL4 (human) [4]): 11
